# Test results reported in article PMC12173559.
# Molecular target: MERS-CoV receptor binding domain (RBD), biotinylated (MERS-CoV) (UniProt K9N5Q8)
# Assay: BLI; […] (10 µg/mL) […] (SA) biosensor for 300 s; analyte in kinetic buffer (PBST, 0.1% BSA) […], association 120 s, dissociation 180 s; […]
row,Substance,Kd
1,rhesus monkey DPP4 (receptor),0.0478 µM
2,alpaca DPP4 (receptor),0.0584 µM
